Experimental findings from patent publication US12428627B2, “Mutant p-hydroxyphenylpyruvate dioxygenase, and coding nucleic acid and use thereof” (Qingdao Kingagroot Chemical Compound Co., Ltd., priority 2018, dated 2025) are described below.

Data set [1] relates to OsHPPD. Put plainly: HPPD enzyme activity assay: Km, Kcat and Kcat/Km of OsHPPDs. The data set is classed as biochemical, Oryza sativa. To be noted: substrate 4-HPP.
For data set [2], the system named is transgenic rice (Zhonghua 11). Put plainly: Herbicide resistance of transgenic rice seedlings (T0) on medium containing tembotrione. The format is in vivo. To be noted: T0 transgenic seedlings overexpressing the mutant, differentiation medium. The text has this:
• 1. Construction of overexpression vector • 1) Primers: primers were designed according to the selected restriction sites and the nucleotide sequence of the gene itself to amplify the three-site mutant HPPD (H141R/G342D/D370N) (OsHPPD3M). The designed primers were synthesized by Beijing Qingke Biotechnology Co., Ltd.: HPPD-F, […] ATGCCTCCCACT CCCACCC, HPPD-R, […] GGC. • 2) PCR amplification: the gene of interest was amplified by using the synthesized primer and Q5 DNA polymerase (NEB, New England Biolabs, Boston, USA). The amplified product was assayed by agarose gel electrophoresis, and the product was recovered according to operational instructions of the TIANquick Midi Purification kit. After the completion of the recovery, the concentration of extracted DNA was determined by Nanodrop. • 3) Construction of a rice overexpression vector: the rice overexpression vector pCAMBIA1301-OsHPPD3M was constructed with the recovered HPPD fragments and plasmid pCAMBIA1301 digested by KpnI and HindIII by using the HB-in Fusions™ seamless cloning kit of HanBio Biotechnology Co., Ltd., (Shanghai), and then transformed into the competent E. coli DH5α to obtain a positive clone; the positive clone was transformed into Agrobacterium after sequencing and restriction endonuclease digestion. • 2. […]

B1: H141R/G342D/D370N: three-site mutant rice HPPD (OsHPPD3M) (protein, listed as Oryza sativa)
chain: MPPTPTPTATTGAVSAAAAAGENAGFRLVGHRRFVRANPRSDRFQALAFHHVELWCADAASAAGRFAFALGAPLAARSDLSTGNSAHASLLLRSASVAFLFTAPYGGDHGVGADAATTASIPSFSPGAARRFAADHGLAVRAVALRVADAADAFRASVAAGARPAFQPADLGGGFGLAEVELYGDVVLRFVSHPDGADAPFLPGFEGVSNPGAVDYGLRRFDHVVGNVPELAPVAAYISGFTGFHEFAEFTAEDVGTAESGLNSVVLANNAETVLLPLNEPVHGTKRRSQIQTYLDHHGGPGVQHIALASDDVLGTLREMRARSAMGGFEFLAPPPPNYYDDVRRRAGDVLSEEQINECQELGVLVDRDNQGVLLQIFTKPVGDRPTFFLEMIQRIGCMEKDESGQEYQKGGCGGFGKGNFSELFKSIEEYEKSLEAKQAPTVQGS
modifications: The amino acid sequence of Wild-Type rice HPPD protein (OsHPPD _WT)
On to B1, for which the Km in data set [1] is 10.9 µM. Further, the “tembotrione concentration in culture medium tolerated (remains green)” value in data set [2] came out at 3 µM.
